Assay results published in the supplement of paper PMC10065799, “High-throughput profiling of sequence recognition by tyrosine kinases and SH2 domains using bacterial peptide display” (eLife, 2023).

Each sequence was assayed against EPHB1 (UniProt P54762) (assay: phosphorylation enrichment, bacterial display (enrichment ratio); higher = better substrate or ligand; peptides without Tyr show the background).
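Further: 11-residue human phosphosite peptides and single-mutation variants displayed on the E. coli surface, counted by deep sequencing, each peptide's frequency after selection divided by its frequency in the unselected input library; frequency after pTyr selection over input frequency; kinase dosed for 20-30% of maximal phosphorylation in three min.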

Sequence of EPHB1 (P54762 whole entry, looked up): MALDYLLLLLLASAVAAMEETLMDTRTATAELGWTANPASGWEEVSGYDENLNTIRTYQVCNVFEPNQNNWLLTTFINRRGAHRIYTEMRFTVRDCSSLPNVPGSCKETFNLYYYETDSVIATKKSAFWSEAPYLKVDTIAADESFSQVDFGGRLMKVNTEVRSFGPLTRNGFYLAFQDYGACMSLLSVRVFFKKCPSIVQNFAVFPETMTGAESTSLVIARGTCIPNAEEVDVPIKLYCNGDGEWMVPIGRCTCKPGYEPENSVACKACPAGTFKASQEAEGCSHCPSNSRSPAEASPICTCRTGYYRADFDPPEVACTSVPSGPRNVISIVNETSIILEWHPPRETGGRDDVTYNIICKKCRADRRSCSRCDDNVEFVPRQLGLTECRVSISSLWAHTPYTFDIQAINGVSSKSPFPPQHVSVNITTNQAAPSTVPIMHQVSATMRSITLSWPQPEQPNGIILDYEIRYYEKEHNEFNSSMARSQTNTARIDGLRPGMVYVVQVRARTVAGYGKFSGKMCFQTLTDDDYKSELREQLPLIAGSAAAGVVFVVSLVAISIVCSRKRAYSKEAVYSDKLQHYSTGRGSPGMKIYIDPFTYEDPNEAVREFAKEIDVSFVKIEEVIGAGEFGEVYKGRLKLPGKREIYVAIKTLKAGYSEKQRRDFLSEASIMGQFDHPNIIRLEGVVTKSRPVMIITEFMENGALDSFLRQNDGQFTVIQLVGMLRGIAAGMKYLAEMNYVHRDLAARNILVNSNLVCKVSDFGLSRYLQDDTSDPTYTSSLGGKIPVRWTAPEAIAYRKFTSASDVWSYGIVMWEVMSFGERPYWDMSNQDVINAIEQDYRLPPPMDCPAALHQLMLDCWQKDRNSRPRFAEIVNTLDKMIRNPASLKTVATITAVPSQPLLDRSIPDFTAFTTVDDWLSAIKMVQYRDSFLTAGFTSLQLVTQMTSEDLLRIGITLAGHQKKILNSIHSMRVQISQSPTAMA

First: RHPEVYHHLGI [NVL_Y290_V295I]
Second: IQKKFYRAILE [CHD7_Y1218_YF]
The phosphorylation enrichment of the first is higher: 0.837 for the first, 0.396 for the second.

First: KNRDVYSSDFF [USP24_Y2134_YF]
Second: KQRKEYMHRRQ [IQGAP2_Y710]
The phosphorylation enrichment of the first is higher: 1.69 for the first, 0.551 for the second.

Compared with NTYENYWPFYQ [GATM_Y103_K102N], ISRLKYPVSQQ [BTK_Y375] is lower in phosphorylation enrichment: 17.2 for the first, 0.331 for the second.

Going from PGNIVYSSLCG [BCOR_Y90] to PNRILYRDFRQ [MYH7_Y715_G716R], the phosphorylation enrichment falls from 0.914 to 0.544.

Compared with PQIVNYSPDCI [LDHB_Y128_K127N], GNLLIYTEFGN [HGD_Y166_K171N] is higher in phosphorylation enrichment: 0.668 for the first, 2.71 for the second.

Going from LIGRRCDDPEV [HSPA9_Y128_Y128C] to DRSSLYLVAGP [KIAA1614_Y1083_N1078D], the phosphorylation enrichment falls from 0.782 to 0.709.

First: NTILLYHIMAW [GPR143_Y157_S152N]
Second: PHQTIYGALMI [FGF23_Y70_S71G]
The phosphorylation enrichment of the first is higher: 5.65 for the first, 0.679 for the second.

Compared with IHFAIYFLKYS [ARMC9_Y107_L108F], EQKKYYNAVKK [SCN5A_Y1495_M1498V] is lower in phosphorylation enrichment: 0.789 for the first, 0.341 for the second.

Going from NIWDSYTTNKV [GNB1_Y85_I80N] to PQAVTYATVKH [LILRB4_Y360_K362T], the phosphorylation enrichment rises from 0.515 to 0.735.

First: KPGVNYFFQVS
Second: ISDNAYQFMLT [MYH7_Y162_YF]
The phosphorylation enrichment of the first is higher: 0.695 for the first, 0.662 for the second.

First: LFVDVYGPSVP [NUBPL_Y109_D105Y_YF]
Second: KNEVLYDEENH [ARFGEF1_Y314_G316E]
The phosphorylation enrichment of the first is higher: 0.576 for the first, 0.568 for the second.

Compared with RESFKYLPSSL [CXXC1_Y218_F219L_YF], HCEDGYPGGSD [CTNND1_Y221_Y217C] is higher in phosphorylation enrichment: 0.512 for the first, 1.03 for the second.

First: CGTPTYLAPEV [CHEK2_Y390]
Second: QYNMQYSSSAA [ERBB2IP_Y981_I979M]
The phosphorylation enrichment of the first is higher: 1.18 for the first, 0.445 for the second.

Compared with GGRIDYIAGLD [APRT_Y60], RDHFGYRQSVT [CD55_Y245_YF] is lower in phosphorylation enrichment: 0.85 for the first, 0.603 for the second.

YQLENYCNGGG [INS_Y108] gave a phosphorylation enrichment of 0.686.

The sequences below were run against MERTK (UniProt Q12866) in the same assay as above.
Sequence of MERTK (Q12866 whole entry, looked up): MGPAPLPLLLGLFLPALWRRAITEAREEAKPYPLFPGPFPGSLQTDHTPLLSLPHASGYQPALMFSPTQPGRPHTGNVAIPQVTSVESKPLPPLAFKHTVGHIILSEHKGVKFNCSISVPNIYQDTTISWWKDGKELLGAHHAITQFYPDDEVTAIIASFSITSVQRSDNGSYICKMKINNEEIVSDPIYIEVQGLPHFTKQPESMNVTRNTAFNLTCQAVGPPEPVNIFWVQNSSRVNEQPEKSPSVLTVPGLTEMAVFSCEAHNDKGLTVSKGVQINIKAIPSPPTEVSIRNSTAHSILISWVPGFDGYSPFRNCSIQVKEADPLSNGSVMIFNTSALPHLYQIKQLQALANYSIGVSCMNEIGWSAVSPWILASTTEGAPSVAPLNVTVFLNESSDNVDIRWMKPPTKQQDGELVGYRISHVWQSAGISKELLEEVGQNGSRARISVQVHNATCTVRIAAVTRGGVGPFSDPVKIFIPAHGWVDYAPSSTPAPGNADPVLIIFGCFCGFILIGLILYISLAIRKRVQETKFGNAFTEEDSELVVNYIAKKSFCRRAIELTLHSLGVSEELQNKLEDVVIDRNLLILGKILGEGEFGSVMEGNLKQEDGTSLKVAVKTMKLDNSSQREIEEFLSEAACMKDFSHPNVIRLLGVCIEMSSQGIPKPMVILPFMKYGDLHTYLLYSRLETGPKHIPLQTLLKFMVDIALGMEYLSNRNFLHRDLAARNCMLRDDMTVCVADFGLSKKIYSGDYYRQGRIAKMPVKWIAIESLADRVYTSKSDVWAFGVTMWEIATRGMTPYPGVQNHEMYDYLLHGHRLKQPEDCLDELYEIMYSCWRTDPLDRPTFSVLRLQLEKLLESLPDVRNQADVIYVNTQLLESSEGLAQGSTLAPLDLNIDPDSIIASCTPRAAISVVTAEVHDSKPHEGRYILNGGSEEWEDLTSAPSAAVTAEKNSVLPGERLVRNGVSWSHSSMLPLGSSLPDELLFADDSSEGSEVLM

Going from RHPEVYHHLGI [NVL_Y290_V295I] to IQKKFYRAILE [CHD7_Y1218_YF], the phosphorylation enrichment falls from 0.71 to 0.409.

Going from KNRDVYSSDFF [USP24_Y2134_YF] to KQRKEYMHRRQ [IQGAP2_Y710], the phosphorylation enrichment falls from 3.39 to 0.452.

Compared with NTYENYWPFYQ [GATM_Y103_K102N], ISRLKYPVSQQ [BTK_Y375] is lower in phosphorylation enrichment: 9.93 for the first, 0.313 for the second.

Going from PGNIVYSSLCG [BCOR_Y90] to PNRILYRDFRQ [MYH7_Y715_G716R], the phosphorylation enrichment falls from 1.6 to 0.574.

Compared with PQIVNYSPDCI [LDHB_Y128_K127N], GNLLIYTEFGN [HGD_Y166_K171N] is higher in phosphorylation enrichment: 0.179 for the first, 3.75 for the second.

Going from LIGRRCDDPEV [HSPA9_Y128_Y128C] to DRSSLYLVAGP [KIAA1614_Y1083_N1078D], the phosphorylation enrichment rises from 0.582 to 1.33.

First: NTILLYHIMAW [GPR143_Y157_S152N]
Second: PHQTIYGALMI [FGF23_Y70_S71G]
The phosphorylation enrichment of the first is higher: 4.42 for the first, 0.796 for the second.

Going from IHFAIYFLKYS [ARMC9_Y107_L108F] to EQKKYYNAVKK [SCN5A_Y1495_M1498V], the phosphorylation enrichment rises from 0.529 to 0.563.

First: NIWDSYTTNKV [GNB1_Y85_I80N]
Second: PQAVTYATVKH [LILRB4_Y360_K362T]
The phosphorylation enrichment of the first is lower: 0.387 for the first, 0.543 for the second.

Compared with KPGVNYFFQVS, ISDNAYQFMLT [MYH7_Y162_YF] is higher in phosphorylation enrichment: 0.508 for the first, 0.883 for the second.

Going from LFVDVYGPSVP [NUBPL_Y109_D105Y_YF] to KNEVLYDEENH [ARFGEF1_Y314_G316E], the phosphorylation enrichment rises from 0.355 to 0.401.

First: RESFKYLPSSL [CXXC1_Y218_F219L_YF]
Second: HCEDGYPGGSD [CTNND1_Y221_Y217C]
The phosphorylation enrichment of the first is lower: 0.286 for the first, 0.626 for the second.

First: CGTPTYLAPEV [CHEK2_Y390]
Second: QYNMQYSSSAA [ERBB2IP_Y981_I979M]
The phosphorylation enrichment of the first is higher: 0.816 for the first, 0.793 for the second.

First: GGRIDYIAGLD [APRT_Y60]
Second: RDHFGYRQSVT [CD55_Y245_YF]
The phosphorylation enrichment of the first is lower: 0.46 for the first, 0.474 for the second.

Sequence YQLENYCNGGG [INS_Y108] has a phosphorylation enrichment of 0.426.

Each sequence was assayed against Jak2 (UniProt O60674) in the same assay as above.
Sequence of Jak2 (O60674 whole entry, looked up): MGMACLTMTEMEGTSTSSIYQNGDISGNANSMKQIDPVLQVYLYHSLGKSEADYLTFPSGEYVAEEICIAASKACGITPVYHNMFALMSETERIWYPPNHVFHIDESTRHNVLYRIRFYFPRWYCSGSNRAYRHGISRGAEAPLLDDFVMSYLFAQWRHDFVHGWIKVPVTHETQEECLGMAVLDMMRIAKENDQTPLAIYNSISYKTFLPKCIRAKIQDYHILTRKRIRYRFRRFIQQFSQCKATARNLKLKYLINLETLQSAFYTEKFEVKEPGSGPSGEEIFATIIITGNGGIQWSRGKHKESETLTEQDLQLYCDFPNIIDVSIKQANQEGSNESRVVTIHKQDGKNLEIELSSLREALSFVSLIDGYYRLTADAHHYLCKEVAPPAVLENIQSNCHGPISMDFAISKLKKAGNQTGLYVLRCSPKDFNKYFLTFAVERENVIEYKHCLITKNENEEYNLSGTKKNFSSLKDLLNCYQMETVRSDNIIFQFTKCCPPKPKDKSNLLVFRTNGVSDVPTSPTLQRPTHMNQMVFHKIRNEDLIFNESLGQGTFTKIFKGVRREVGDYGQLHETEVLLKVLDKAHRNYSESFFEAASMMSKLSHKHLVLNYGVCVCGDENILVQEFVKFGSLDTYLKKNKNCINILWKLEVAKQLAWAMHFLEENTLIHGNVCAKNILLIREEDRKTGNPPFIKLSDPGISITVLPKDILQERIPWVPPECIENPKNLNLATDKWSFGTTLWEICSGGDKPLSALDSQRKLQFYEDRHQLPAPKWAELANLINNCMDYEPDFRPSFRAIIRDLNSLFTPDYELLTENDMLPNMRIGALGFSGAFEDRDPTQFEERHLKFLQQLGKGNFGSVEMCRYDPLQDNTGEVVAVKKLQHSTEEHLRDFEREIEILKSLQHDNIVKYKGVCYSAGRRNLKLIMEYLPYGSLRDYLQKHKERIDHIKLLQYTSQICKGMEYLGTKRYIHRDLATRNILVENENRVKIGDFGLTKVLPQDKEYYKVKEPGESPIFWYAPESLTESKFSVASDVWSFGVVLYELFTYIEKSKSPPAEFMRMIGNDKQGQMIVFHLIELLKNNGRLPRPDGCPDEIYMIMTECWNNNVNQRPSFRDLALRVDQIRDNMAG

First: RHPEVYHHLGI [NVL_Y290_V295I]
Second: IQKKFYRAILE [CHD7_Y1218_YF]
The phosphorylation enrichment of the first is higher: 0.834 for the first, 0.636 for the second.

First: KNRDVYSSDFF [USP24_Y2134_YF]
Second: KQRKEYMHRRQ [IQGAP2_Y710]
The phosphorylation enrichment of the first is higher: 0.693 for the first, 0.636 for the second.

Going from NTYENYWPFYQ [GATM_Y103_K102N] to ISRLKYPVSQQ [BTK_Y375], the phosphorylation enrichment falls from 5.55 to 0.534.

First: PGNIVYSSLCG [BCOR_Y90]
Second: PNRILYRDFRQ [MYH7_Y715_G716R]
The phosphorylation enrichment of the first is higher: 1.65 for the first, 0.79 for the second.

Compared with PQIVNYSPDCI [LDHB_Y128_K127N], GNLLIYTEFGN [HGD_Y166_K171N] is higher in phosphorylation enrichment: 0.254 for the first, 0.997 for the second.

Compared with LIGRRCDDPEV [HSPA9_Y128_Y128C], DRSSLYLVAGP [KIAA1614_Y1083_N1078D] is lower in phosphorylation enrichment: 1.41 for the first, 1.08 for the second.

First: NTILLYHIMAW [GPR143_Y157_S152N]
Second: PHQTIYGALMI [FGF23_Y70_S71G]
The phosphorylation enrichment of the first is higher: 2.07 for the first, 0.721 for the second.

Going from IHFAIYFLKYS [ARMC9_Y107_L108F] to EQKKYYNAVKK [SCN5A_Y1495_M1498V], the phosphorylation enrichment falls from 1.73 to 0.634.

Compared with NIWDSYTTNKV [GNB1_Y85_I80N], PQAVTYATVKH [LILRB4_Y360_K362T] is higher in phosphorylation enrichment: 0.663 for the first, 0.882 for the second.

First: KPGVNYFFQVS
Second: ISDNAYQFMLT [MYH7_Y162_YF]
The phosphorylation enrichment of the first is higher: 1.28 for the first, 0.957 for the second.

First: LFVDVYGPSVP [NUBPL_Y109_D105Y_YF]
Second: KNEVLYDEENH [ARFGEF1_Y314_G316E]
The phosphorylation enrichment of the first is lower: 1.17 for the first, 1.3 for the second.

First: RESFKYLPSSL [CXXC1_Y218_F219L_YF]
Second: HCEDGYPGGSD [CTNND1_Y221_Y217C]
The phosphorylation enrichment of the first is lower: 0.837 for the first, 1.34 for the second.

First: CGTPTYLAPEV [CHEK2_Y390]
Second: QYNMQYSSSAA [ERBB2IP_Y981_I979M]
The phosphorylation enrichment of the first is higher: 1.9 for the first, 0.956 for the second.

Compared with GGRIDYIAGLD [APRT_Y60], RDHFGYRQSVT [CD55_Y245_YF] is lower in phosphorylation enrichment: 0.708 for the first, 0.572 for the second.

For YQLENYCNGGG [INS_Y108], the phosphorylation enrichment was 0.461.

What follows are sequences tested against EPHB2 (UniProt P29323) in the same assay as above.
Sequence of EPHB2 (P29323 whole entry, looked up): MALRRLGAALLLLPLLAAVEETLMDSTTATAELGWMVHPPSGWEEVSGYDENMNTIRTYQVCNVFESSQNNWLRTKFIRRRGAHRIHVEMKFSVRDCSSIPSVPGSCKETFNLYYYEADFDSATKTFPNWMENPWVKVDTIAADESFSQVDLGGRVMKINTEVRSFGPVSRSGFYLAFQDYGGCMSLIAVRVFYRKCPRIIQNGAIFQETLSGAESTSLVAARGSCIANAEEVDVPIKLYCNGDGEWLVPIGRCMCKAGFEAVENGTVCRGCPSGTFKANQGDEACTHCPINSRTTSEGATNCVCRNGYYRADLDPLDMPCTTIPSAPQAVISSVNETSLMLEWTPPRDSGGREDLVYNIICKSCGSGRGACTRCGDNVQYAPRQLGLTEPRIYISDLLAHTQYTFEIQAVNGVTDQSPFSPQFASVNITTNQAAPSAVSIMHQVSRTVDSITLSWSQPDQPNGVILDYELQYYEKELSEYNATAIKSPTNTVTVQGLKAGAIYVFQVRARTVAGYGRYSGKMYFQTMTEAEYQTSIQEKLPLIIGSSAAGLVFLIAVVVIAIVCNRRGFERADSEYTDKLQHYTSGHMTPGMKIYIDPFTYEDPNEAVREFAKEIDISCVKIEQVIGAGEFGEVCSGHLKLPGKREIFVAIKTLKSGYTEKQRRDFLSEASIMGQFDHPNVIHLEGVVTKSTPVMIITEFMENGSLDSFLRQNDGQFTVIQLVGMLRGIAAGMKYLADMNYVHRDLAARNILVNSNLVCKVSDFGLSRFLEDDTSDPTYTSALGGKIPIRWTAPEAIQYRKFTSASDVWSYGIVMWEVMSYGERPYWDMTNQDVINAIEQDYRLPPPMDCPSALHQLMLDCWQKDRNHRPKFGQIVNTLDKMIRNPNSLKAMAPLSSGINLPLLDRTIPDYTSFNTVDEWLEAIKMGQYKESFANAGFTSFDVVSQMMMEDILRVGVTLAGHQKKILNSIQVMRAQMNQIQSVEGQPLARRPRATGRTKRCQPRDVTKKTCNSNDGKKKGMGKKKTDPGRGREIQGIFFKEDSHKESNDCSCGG

Compared with RHPEVYHHLGI [NVL_Y290_V295I], IQKKFYRAILE [CHD7_Y1218_YF] is lower in phosphorylation enrichment: 0.599 for the first, 0.275 for the second.

Compared with KNRDVYSSDFF [USP24_Y2134_YF], KQRKEYMHRRQ [IQGAP2_Y710] is lower in phosphorylation enrichment: 1.73 for the first, 0.444 for the second.

Going from NTYENYWPFYQ [GATM_Y103_K102N] to ISRLKYPVSQQ [BTK_Y375], the phosphorylation enrichment falls from 22.2 to 0.383.

Compared with PGNIVYSSLCG [BCOR_Y90], PNRILYRDFRQ [MYH7_Y715_G716R] is lower in phosphorylation enrichment: 0.987 for the first, 0.615 for the second.

First: PQIVNYSPDCI [LDHB_Y128_K127N]
Second: GNLLIYTEFGN [HGD_Y166_K171N]
The phosphorylation enrichment of the first is lower: 0.451 for the first, 1.89 for the second.

First: LIGRRCDDPEV [HSPA9_Y128_Y128C]
Second: DRSSLYLVAGP [KIAA1614_Y1083_N1078D]
The phosphorylation enrichment of the first is lower: 0.623 for the first, 0.833 for the second.

First: NTILLYHIMAW [GPR143_Y157_S152N]
Second: PHQTIYGALMI [FGF23_Y70_S71G]
The phosphorylation enrichment of the first is higher: 3.9 for the first, 0.711 for the second.

First: IHFAIYFLKYS [ARMC9_Y107_L108F]
Second: EQKKYYNAVKK [SCN5A_Y1495_M1498V]
The phosphorylation enrichment of the first is higher: 0.718 for the first, 0.34 for the second.

Compared with NIWDSYTTNKV [GNB1_Y85_I80N], PQAVTYATVKH [LILRB4_Y360_K362T] is higher in phosphorylation enrichment: 0.488 for the first, 0.615 for the second.

First: KPGVNYFFQVS
Second: ISDNAYQFMLT [MYH7_Y162_YF]
The phosphorylation enrichment of the first is higher: 0.577 for the first, 0.526 for the second.

Compared with LFVDVYGPSVP [NUBPL_Y109_D105Y_YF], KNEVLYDEENH [ARFGEF1_Y314_G316E] is higher in phosphorylation enrichment: 0.545 for the first, 0.618 for the second.

Going from RESFKYLPSSL [CXXC1_Y218_F219L_YF] to HCEDGYPGGSD [CTNND1_Y221_Y217C], the phosphorylation enrichment rises from 0.395 to 0.743.

First: CGTPTYLAPEV [CHEK2_Y390]
Second: QYNMQYSSSAA [ERBB2IP_Y981_I979M]
The phosphorylation enrichment of the first is higher: 1.39 for the first, 0.687 for the second.

First: GGRIDYIAGLD [APRT_Y60]
Second: RDHFGYRQSVT [CD55_Y245_YF]
The phosphorylation enrichment of the first is higher: 0.417 for the first, 0.33 for the second.

Work on YQLENYCNGGG [INS_Y108] yielded a phosphorylation enrichment of 0.572.
